# Results reported in patent publication US20260193335A1 (ZOETIS SERVICES, published 2026).
# Substitutions are numbered along the chain they refer to. Names may count otherwise.
# B1: mAb4 (felinized anti-IL31 antibody ZTS-5864) S428A, feline IgG1a (antibody)
# heavy: DVQLVESGGDLVKPGGSLRLTCVASGFTFSDYAMSWVRQAPGKGLQWVAGIDSVGSGTSYADSVKGRFTISRDNAKNTLYLQMNSLKTEDTATYYCASGFPGSFEHWGQGTLVTVSSASTTAPSVFPLAPSCGTTSGATVALACLVLGYFPEPVTVSWNSGALTSGVHTFPAVLQASGLYSLSSMVTVPSSRWLSDTFTCNVAHPPSNTKVDKTVRKTDHPPGPKPCDCPKCPPPEMLGGPSIFIFPPKPKDTLSISRTPEVTCLVVDLGPDDSDVQITWFVDNTQVYTAKTSPREEQFNSTYRVVSVLPILHQDWLKGKEFKCKVNSKSLPSPIERTISKAKGQPHEPQVYVLPPAQEELSRNKVSVTCLIKSFHPPDIAVEWEITGQPEPENNYRTTPPQLDSDGTYFVYSKLSVDRSHWQRGNTYTCSVAHEALHSHHTQKSLTQSPGK
# VL: QSVLTQPSSVSGTLGQRITISCTGSSSNIGSGYVGWYQQVPGMGPKTVIYYNSDRPSGVPDRFSGSKSGSSGTLTITGLQAEDEADYYCSVYDRTFNAVFGGGT
# notes: also called mAb4 ID No. 2
# B2: mAb4 (felinized anti-IL31 antibody ZTS-5864) S428L and S434F, feline IgG1a (antibody)
# heavy: B1 heavy with A433L, S439F
# VL: B1 VL
# notes: also called mAb4 ID No. 23
# B3: mAb4 (felinized anti-IL31 antibody ZTS-5864) S428D, feline IgG1a (antibody)
# heavy: B1 heavy with A433D
# VL: B1 VL
# notes: also called mAb4 ID No. 4
# B4: mAb4 (felinized anti-IL31 antibody ZTS-5864) S428L and S434L, feline IgG1a (antibody)
# heavy: B1 heavy with A433L, S439L
# VL: B1 VL
# notes: also called mAb4 ID No. 24
# B5: mAb4 (felinized anti-IL31 antibody ZTS-5864) S428L and S434H, feline IgG1a (antibody)
# heavy: B1 heavy with A433L, S439H
# VL: B1 VL
# notes: also called mAb4 ID No. 22
# B6: mAb4 (felinized anti-IL31 antibody ZTS-5864) S428C, feline IgG1a (antibody)
# heavy: B1 heavy with A433C
# VL: B1 VL
# notes: also called mAb4 ID No. 3
# B7: mAb4 (felinized anti-IL31 antibody ZTS-5864) S428L and S434P, feline IgG1a (antibody)
# heavy: B1 heavy with A433L, S439P
# VL: B1 VL
# notes: also called mAb4 ID No. 25
# B8: mAb4 (felinized anti-IL31 antibody ZTS-5864) S428L and S434W, feline IgG1a (antibody)
# heavy: B1 heavy with A433L, S439W
# VL: B1 VL
# notes: also called mAb4 ID No. 26
# B9: mAb3 (felinized anti-NGF antibody ZTS-768) S428A, feline IgG1a (antibody)
# heavy: DVQLVESGGDLVKPGGSLRLTCVASGFTYSNYWMHWVRQAPGKGLQWVARIDPYGGGTKHNEKFKRRFTISRDNAKNTLYLQMNSLKTEDTATYYCVRSGYDYYFDVWGQGTLVTVSSASTTAPSVFPLAPSCGTTSGATVALACLVLGYFPEPVTVSWNSGALTSGVHTFPAVLQASGLYSLSSMVTVPSSRWLSDTFTCNVAHPPSNTKVDKTVRKTDHPPGPKPCDCPKCPPPEMLGGPSIFIFPPKPKDTLSISRTPEVTCLVVDLGPDDSDVQITWFVDNTQVYTAKTSPREEQFNSTYRVVSVLPILHQDWLKGKEFKCKVNSKSLPSPIERTISKAKGQPHEPQVYVLPPAQEELSRNKVSVTCLIKSFHPPDIAVEWEITGQPEPENNYRTTPPQLDSDGTYFVYSKLSVDRSHWQRGNTYTCSVAHEALHSHHTQKSLTQSPGK
# light: EIQMTQSPSSLSASPGDRVTITCRASENIYSFLAWYQQKPGKVPKLLIYNANTLAEGVPSRFSGSGSGTDFTLTISSLEPEDAATYYCQHHFGTPFTFGSGTKLEIKRSDAQPSVFLFQPSLDELHTGSASIVCILNDFYPKEVNVKWKVDGVVQNKGIQESTTEQNSKDSTYSLSSTLTMSSTEYQSHEKFSCEVTHKSLASTLVKSFQRSECQRE
# notes: also called mAb3 ID No. 89
# B10: mAb3 (felinized anti-NGF antibody ZTS-768) S428D, feline IgG1a (antibody)
# heavy: B9 heavy with A434D
# light: B9 light
# notes: also called mAb3 ID No. 91
# B11: mAb3 (felinized anti-NGF antibody ZTS-768) S428G, feline IgG1a (antibody)
# heavy: B9 heavy with A434G
# light: B9 light
# notes: also called mAb3 ID No. 94
# B12: mAb3 (felinized anti-NGF antibody ZTS-768) S428L, feline IgG1a (antibody)
# heavy: B9 heavy with A434L
# light: B9 light
# notes: also called mAb3 ID No. 98
# B13: mAb3 (felinized anti-NGF antibody ZTS-768) S428V, feline IgG1a (antibody)
# heavy: B9 heavy with A434V
# light: B9 light
# notes: also called mAb3 ID No. 105
# B14: mAb3 (felinized anti-NGF antibody ZTS-768) S428K, feline IgG1a (antibody)
# heavy: B9 heavy with A434K
# light: B9 light
# notes: also called mAb3 ID No. 97
# B15: mAb3 (felinized anti-NGF antibody ZTS-768) S428Y and S434W, feline IgG1a (antibody)
# heavy: B9 heavy with A434Y, S440W
# light: B9 light
# B16: mAb3 (felinized anti-NGF antibody ZTS-768) S428L and S434L, feline IgG1a (antibody)
# heavy: B9 heavy with A434L, S440L
# light: B9 light
# notes: also called mAb3 ID No. 111
# B17: mAb3 (felinized anti-NGF antibody ZTS-768) S428Y, feline IgG1a (antibody)
# heavy: B9 heavy with A434Y
# light: B9 light
# B18: mAb3 (felinized anti-NGF antibody ZTS-768) S428Y and S434P, feline IgG1a (antibody)
# heavy: B9 heavy with A434Y, S440P
# light: B9 light
# B19: mAb3 (felinized anti-NGF antibody ZTS-768) S428I, feline IgG1a (antibody)
# heavy: B9 heavy with A434I
# light: B9 light
# notes: also called mAb3 ID No. 96
# B20: mAb3 (felinized anti-NGF antibody ZTS-768) S428M, feline IgG1a (antibody)
# heavy: B9 heavy with A434M
# light: B9 light
# notes: also called mAb3 ID No. 99
# B21: mAb3 (felinized anti-NGF antibody ZTS-768) S428L and S434F, feline IgG1a (antibody)
# heavy: B9 heavy with A434L, S440F
# light: B9 light
# notes: also called mAb3 ID No. 110
# B22: mAb3 (felinized anti-NGF antibody ZTS-768) S428Q, feline IgG1a (antibody)
# heavy: B9 heavy with A434Q
# light: B9 light
# B23: mAb3 (felinized anti-NGF antibody ZTS-768) S428R, feline IgG1a (antibody)
# heavy: B9 heavy with A434R
# light: B9 light
# notes: also called mAb3 ID No. 103
# B24: mAb3 (felinized anti-NGF antibody ZTS-768) S428P, feline IgG1a (antibody)
# heavy: B9 heavy with A434P
# light: B9 light
# notes: also called mAb3 ID No. 101
# B25: mAb3 (felinized anti-NGF antibody ZTS-768) S428N, feline IgG1a (antibody)
# heavy: B9 heavy with A434N
# light: B9 light
# notes: also called mAb3 ID No. 100
# B26: mAb3 (felinized anti-NGF antibody ZTS-768) S428Y and S434L, feline IgG1a (antibody)
# heavy: B9 heavy with A434Y, S440L
# light: B9 light
# notes: also called mAb3 ID No. 116
# B27: mAb3 (felinized anti-NGF antibody ZTS-768) S428L and S434W, feline IgG1a (antibody)
# heavy: B9 heavy with A434L, S440W
# light: B9 light
# notes: also called mAb3 ID No. 113
# B28: mAb3 (felinized anti-NGF antibody ZTS-768) S428E, feline IgG1a (antibody)
# heavy: B9 heavy with A434E
# light: B9 light
# notes: also called mAb3 ID No. 92
# B29: mAb3 (felinized anti-NGF antibody ZTS-768) S428W, feline IgG1a (antibody)
# heavy: B9 heavy with A434W
# light: B9 light
# B30: mAb3 (felinized anti-NGF antibody ZTS-768) S428H, feline IgG1a (antibody)
# heavy: B9 heavy with A434H
# light: B9 light
# notes: also called mAb3 ID No. 95
# B31: mAb3 (felinized anti-NGF antibody ZTS-768) S428Y and S434F, feline IgG1a (antibody)
# heavy: B9 heavy with A434Y, S440F
# light: B9 light
# notes: also called mAb3 ID No. 115
# B32: mAb3 (felinized anti-NGF antibody ZTS-768) S428F, feline IgG1a (antibody)
# heavy: B9 heavy with A434F
# light: B9 light
# notes: also called mAb3 ID No. 93
# B33: mAb3 (felinized anti-NGF antibody ZTS-768) S428Y and S434H, feline IgG1a (antibody)
# heavy: B9 heavy with A434Y, S440H
# light: B9 light
# notes: also called mAb3 ID No. 114
# B34: mAb3 (felinized anti-NGF antibody ZTS-768) S428L and S434H, feline IgG1a (antibody)
# heavy: B9 heavy with A434L, S440H
# light: B9 light
# notes: also called mAb3 ID No. 109
# B35: mAb3 (felinized anti-NGF antibody ZTS-768) S428T, feline IgG1a (antibody)
# heavy: B9 heavy with A434T
# light: B9 light
# notes: also called mAb3 ID No. 104
# B36: mAb3 (felinized anti-NGF antibody ZTS-768) S428C, feline IgG1a (antibody)
# heavy: B9 heavy with A434C
# light: B9 light
# notes: also called mAb3 ID No. 90
# B37: mAb3 (felinized anti-NGF antibody ZTS-768) S428L and S434P, feline IgG1a (antibody)
# heavy: B9 heavy with A434L, S440P
# light: B9 light
# Biological target: T1, Feline FcRn (complex of FcRn-α subunit and β-microglobulin, C-terminal His tag) (feline, UniProt A0ABI7ZNY9 23-296; Q5MGS7 21-118)
# T1 construct: treated here as one molecule
# Experiment: SPR Biacore, biotin-FcRn on SA chip, pH 6
# Method: Feline FcRn was isolated, prepared and mutant Fc IgGs were assayed against feline FcRn according to Strietzel et. al., discussed above. Standard PCR was used to amplify feline FcRn-α subunit and β-microglobulin. FcRn-α subunit and β-microglobulin were co-transfected into HEK 293 cells and the FcRn complex was purified by IMAC affinity purification via the c-terminal His tag. FcRn complex was biotin labeled through BirA enzymatic biotinylatoin reaction. KD's were measured by Biacore T200 (GE Healthcare, Pittsburgh, PA, USA) or Biacore 8K (Cytiva, Marlborough, MA, USA) using a SA sensor chip.
# FcRn was captured on the surface of the sensor using a modified SA capture method. 10 mM MES; 150 mM NaCl; 0.005% Tween20; 0.5 mg/mL BSA; pH6 was used as capture, method running buffer and titrations. 1×HBS-P, 0.5 mg/mL BSA; pH7.4 was also used for method running buffer and titrations. Fc mutant IgGs were flowed over receptor surfaces and affinity was determined using T200 evaluation software or Biacore Insight Evaluation software. Blank runs containing buffer only were subtracted out from all runs. Flow cells were regenerated using 50 mM Tris pH8 or pH9. Runs were performed at 15° C.
row,Kd,Binder
1,66.4 nM,B1
2,84.7 nM,B2
3,190 nM,B3
4,97.2 nM,B4
5,17.7 nM,B5
6,29 nM,B6
7,2250 nM,B7
8,17.2 nM,B8
9,22.3 nM,B9
10,56.8 nM,B10
11,87.7 nM,B11
12,15.4 nM,B12
13,17.1 nM,B13
14,22.2 nM,B14
15,0.812 nM,B15
16,0.312 nM,B16
17,58.2 nM,B17
18,16.6 nM,B18
19,22.2 nM,B19

row,Kd,Binder
1,6.89 nM,B20
2,3.38 nM,B21
3,71.3 nM,B22
4,27.3 nM,B23
5,17.8 nM,B24
6,11.2 nM,B25
7,34.3 nM,B26
8,23.6 nM,B27
9,57.4 nM,B28
10,18.5 nM,B29
11,53.3 nM,B30
12,2.94 nM,B31
13,6.75 nM,B32
14,3.25 nM,B33
15,13.1 nM,B34
16,25.8 nM,B35
17,26.2 nM,B36
18,18.8 nM,B37
